For data set [1], the target named is Hepatitis B surface antigen (HBs Ag) (Hepatitis B virus) (UniProt P03141). As to conditions: magnetic bead pulldown with q-PCR, BD buffer, room temperature.
For data set [2] the target is unchanged. To be noted: magnetic bead pulldown with q-PCR, BD buffer, room temperature. The source holds these as a separate data set.

Where two headings read alike, the source gives them in different places.

The Kd is a measure of binding affinity in units of concentration. A high value points to lower affinity.

Sequence of Hepatitis B surface antigen (HBs Ag) (Hepatitis B virus) (P03141 175-400): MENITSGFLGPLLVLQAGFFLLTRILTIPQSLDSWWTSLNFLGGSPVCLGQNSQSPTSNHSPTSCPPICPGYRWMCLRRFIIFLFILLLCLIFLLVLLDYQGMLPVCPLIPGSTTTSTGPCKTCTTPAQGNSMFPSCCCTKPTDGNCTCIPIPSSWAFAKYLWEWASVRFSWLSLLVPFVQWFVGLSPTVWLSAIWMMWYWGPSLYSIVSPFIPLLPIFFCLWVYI

For the sequence “AGCAGCACAGAGGTCCCAACCGGAATCTGCACCTCGCGTGCTACCGTGAA [K2-4]”, in data set [1], the dissociation constant (Kd) worked out at 31.4 nM. That is a double-digit nanomolar value.
As to “AGCAGCACAGAGGTCCTGCATCACGAAGCCTGGCAGCGTGCTACCGTGAA [MP-1]”, the Kd in data set [2] came out at 28.3 nM.

Source of the values: US20190154677.
